The record followed here is patent US20130230519A1 (published 2013).

Numbering of substitutions follows the chain as printed.

The chains are these.
B1: DOM7h-14-123 (other)
VL: DIQMTQSPSSLSASVGDRVTITCRASQWIGSQLSWYQQKPGKAPKLLIMWRSSLQSGVPSRFSGSGSGTDFTLTISSLQPEDFATYYCAQGLRHPKTYGKGTKVENKR
B2: DOM7h-14-56 (other)
VL: B1 VL with K45M, R51S, Y98F, K100Q, N106I, R108W
notes: pDOM5 myc tag not included
B3: DOM7h-14-76 (other)
VL: B1 VL with R93K, K100Q, N106I, R108W
notes: pDOM5 myc tag not included
B4: DOM7h-14-100 (other)
VL: B1 VL with K100Q, R108W
notes: pDOM5 myc tag not included
B5: DOM7h-14-101 (other)
VL: B1 VL with S53A, S56N, Y98F, K100Q, N106I, R108W
notes: pDOM5 myc tag not included
B6: DOM7h-14-116 (other)
VL: B1 VL with S53A, H94Y, Y98F, K100Q, N106I, R108W
notes: pDOM5 myc tag not included
B7: DOM7h-14-109 (other)
VL: B1 VL with S12F, H94K, Y98F, K100Q, E105K, N106I, R108W
notes: pDOM5 myc tag not included
B8: DOM7h-14-74 (other)
VL: B1 VL with R108W
notes: pDOM5 myc tag not included
B9: DOM7h-14-82 (other)
VL: B1 VL with L92M, Y98F, K100Q, N106I, R108W
notes: pDOM5 myc tag not included
B10: DOM7h-14-120 (other)
VL: B1 VL with K100Q
B11: DOM7h-14-10 (other)
VL: B1 VL with Y98F, K100Q, N106I
notes: Vk dAb (AlbudAb); tag not included here
B12: DOM7h-14-119 (other)
VL: B1 VL with K100Q, N106I
B13: DOM7h-14-122 (other)
VL: B1 VL with N106I
B14: DOM7h-14-65 (other)
VL: B1 VL with S53A, Y98F, K100Q, N106I, R108W
notes: pDOM5 myc tag not included
B15: DOM7h-14-115 (other)
VL: B1 VL with S53A, K100Q, N106I, R108W
notes: pDOM5 myc tag not included

T3 sequence (A2V9Z4 25-608): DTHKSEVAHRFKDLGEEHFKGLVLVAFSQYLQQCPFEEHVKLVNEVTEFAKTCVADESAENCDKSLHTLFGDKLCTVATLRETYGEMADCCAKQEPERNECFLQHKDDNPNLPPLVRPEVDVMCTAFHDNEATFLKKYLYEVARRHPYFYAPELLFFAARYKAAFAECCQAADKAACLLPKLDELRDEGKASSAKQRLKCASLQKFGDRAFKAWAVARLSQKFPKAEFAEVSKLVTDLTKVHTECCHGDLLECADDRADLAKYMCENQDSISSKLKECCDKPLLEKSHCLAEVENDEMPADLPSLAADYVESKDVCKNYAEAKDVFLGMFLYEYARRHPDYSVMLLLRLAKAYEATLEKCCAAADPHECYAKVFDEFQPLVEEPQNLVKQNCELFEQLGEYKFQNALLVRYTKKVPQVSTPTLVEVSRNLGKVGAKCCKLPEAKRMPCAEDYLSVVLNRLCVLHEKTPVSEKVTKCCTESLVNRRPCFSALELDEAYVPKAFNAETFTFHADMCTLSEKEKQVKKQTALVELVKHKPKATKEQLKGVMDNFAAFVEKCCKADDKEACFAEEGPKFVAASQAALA

The target of one test is T1, Human Serum Albumin (human, UniProt P02768 25-609).
T1 construct: mature; Bought purified serum protein; Immobilised on CM5 chips; also called HSA; human SA
T1 sequence (P02768 25-609): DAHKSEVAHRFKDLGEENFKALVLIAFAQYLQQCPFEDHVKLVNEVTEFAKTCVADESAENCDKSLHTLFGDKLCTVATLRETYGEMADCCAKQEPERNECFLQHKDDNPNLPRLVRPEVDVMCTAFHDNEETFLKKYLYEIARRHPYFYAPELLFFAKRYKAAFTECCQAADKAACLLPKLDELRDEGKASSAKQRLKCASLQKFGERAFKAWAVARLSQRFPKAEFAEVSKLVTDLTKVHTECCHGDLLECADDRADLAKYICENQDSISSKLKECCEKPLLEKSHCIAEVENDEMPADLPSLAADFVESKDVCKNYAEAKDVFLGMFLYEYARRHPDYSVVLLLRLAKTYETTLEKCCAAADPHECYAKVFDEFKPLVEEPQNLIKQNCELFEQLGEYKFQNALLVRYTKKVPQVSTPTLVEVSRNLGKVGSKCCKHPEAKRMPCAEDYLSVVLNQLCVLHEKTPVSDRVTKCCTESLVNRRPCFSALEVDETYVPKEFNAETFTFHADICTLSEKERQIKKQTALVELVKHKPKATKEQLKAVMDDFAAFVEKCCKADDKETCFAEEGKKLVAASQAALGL
In words: SPR (BIAcore), purified dAb. How it is done:
(§1) Unique dAbs were expressed as bacterial supernatants in 0.5 L shake flasks in Onex media at 30° C. for 48 hrs at 250 rpm. dAbs were purified from the culture media by absorption to protein L streamline followed by elution with 100 mM glycine pH2.0.
A general note: SPR reads the build-up and loss of mass on a sensor chip optically.
With B1, binding was characterised by a dissociation constant (Kd) of 12 nM.

B2 displayed an equilibrium dissociation constant (Kd) of 11.1 nM.

Consider B3, for which the Kd was found to be 6.3 nM.

Turning to B4, the Kd came out at 4.5 nM.

Take B5: binding was characterised by a dissociation constant (Kd) of 8.4 nM.

B6 came in with a Kd of 7 nM.

For the molecule B7, the Kd came out at 108 nM.

Turning to B8, the affinity, expressed as Kd, was 4.8 nM.

Turning to B9, the Kd was determined as 15.4 nM.

B10 gave a dissociation constant (Kd) of 14 nM.

For another test, the target named is T2, Rat Serum Albumin (rat, UniProt P02770 25-608).
T2 construct: mature; Bought purified serum protein; also called RSA; rat SA
T2 sequence (P02770 25-608): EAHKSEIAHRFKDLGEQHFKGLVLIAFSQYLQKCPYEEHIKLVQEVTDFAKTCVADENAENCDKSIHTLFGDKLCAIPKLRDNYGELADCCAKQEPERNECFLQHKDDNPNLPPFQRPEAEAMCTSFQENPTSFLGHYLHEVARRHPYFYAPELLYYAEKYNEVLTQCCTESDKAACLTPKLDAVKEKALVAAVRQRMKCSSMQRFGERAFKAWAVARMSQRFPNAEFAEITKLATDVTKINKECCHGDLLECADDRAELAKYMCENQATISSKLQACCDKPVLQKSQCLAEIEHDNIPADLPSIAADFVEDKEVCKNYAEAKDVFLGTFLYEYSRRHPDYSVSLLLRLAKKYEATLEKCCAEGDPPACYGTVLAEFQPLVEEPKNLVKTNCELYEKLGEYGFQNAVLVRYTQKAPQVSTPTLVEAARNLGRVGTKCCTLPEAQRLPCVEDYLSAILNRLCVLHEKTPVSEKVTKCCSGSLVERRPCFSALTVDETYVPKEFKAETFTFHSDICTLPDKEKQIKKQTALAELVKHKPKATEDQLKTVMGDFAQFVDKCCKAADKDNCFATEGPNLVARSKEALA
In words: SPR (BIAcore), purified dAb. How it is done: as §1
Molecule B11 registered a Kd of 9.4 nM.

In the case of B1, the Kd was determined as 5.1 nM.

As to B2, the Kd is 3.4 nM.

The molecule B3 came in with a Kd of 4.7 nM.

With B4, the Kd was 3.7 nM.

In the case of B12, binding was characterised by a dissociation constant (Kd) of 6.2 nM.

In the case of B13, the Kd was found to be 7.8 nM.

Turning to B5, the Kd came out at 5.8 nM.

Consider B6, for which the dissociation constant Kd was 8.5 nM.

B7 returned a Kd of 15.4 nM.

B8 showed a Kd of 4.3 nM.

B9 displayed a Kd of 11.8 nM.

Molecule B10 showed a Kd of 2.7 nM.

The next test concerns the target T3, Cynomolgus monkey Serum Albumin (Cynomolgus monkey, UniProt A2V9Z4 25-608).
T3 construct: mature; Purified in house; also called CSA; cyno serum albumin
In words: SPR (BIAcore), purified dAb. How it is done: as §1
Consider B1, for which the Kd amounted to 8 nM.

Regarding B2, the Kd came to 18.7 nM.

Molecule B3 yielded a Kd of 19.9 nM.

On to B4, for which binding was put at a Kd of 6.4 nM.

Take B5: the dissociation constant (Kd) stood at 11.6 nM.

B6 showed a Kd of 22.8 nM.

B7 gave a Kd of 17.6 nM.

Molecule B8 displayed a Kd of 6.3 nM.

Consider B9, for which the Kd stood at 170 nM.

B10 showed a Kd of 3.7 nM.

For the next test, the target named is T4, mouse serum albumin (mouse, UniProt P07724 25-608).
T4 construct: mature; Bought purified serum protein; also called MSA; mouse SA
Kind of test: SPR (BIAcore), purified dAb. How it is done: as §1
Molecule B11 gave a Kd of 30.1 nM.

As to B2, the Kd turned out to be 6.3 nM.

Molecule B14 displayed a Kd of 15.3 nM.

B15 yielded a Kd of 9.8 nM.

Consider B3, for which the affinity, expressed as Kd, was 11.5 nM.

B4: the Kd was found to be 8 nM.

In turn, B5 showed a Kd of 16.8 nM.

In turn, B6 gave a Kd of 19.1 nM.

B7 registered a Kd of 58.1 nM.

In the case of B8, the Kd turned out to be 23.5 nM.

B9: the Kd is 32.3 nM.

The next test concerns the target T2, Rat Serum Albumin. Kind of test: SPR (BIAcore), purified dAb; second protein batch, second analyst. How it is done:
as §1
In turn, B14 returned a Kd of 25 nM.

In the case of B4, the Kd amounted to 29 nM.

Molecule B8 displayed a Kd of 11.6 nM.

The target in a further test is T3, Cynomolgus monkey Serum Albumin. The test is described as above. How it is done:
as §1
Consider B14, for which the Kd is 16 nM.

Molecule B4 yielded a Kd of 6.1 nM.

B8 returned a Kd of 2.7 nM.

For orientation: Kd means a measure of binding affinity in units of concentration.
